Tests used:
[1] = target: human LAG-3 (LAG-3 effector Jurkat T cells) (human) (UniProt P18627); test: cell-based or functional assay
[2] = target: human PD-L1 (PD-L1 aAPC/CHO-K1 cells) (human) (UniProt Q9NZQ7); test: cell-based or functional assay
PD-L1 = PD-L1 (UniProt Q9NZQ7); test: FACS binding
Chain of PD-L1 (Q9NZQ7 19-290): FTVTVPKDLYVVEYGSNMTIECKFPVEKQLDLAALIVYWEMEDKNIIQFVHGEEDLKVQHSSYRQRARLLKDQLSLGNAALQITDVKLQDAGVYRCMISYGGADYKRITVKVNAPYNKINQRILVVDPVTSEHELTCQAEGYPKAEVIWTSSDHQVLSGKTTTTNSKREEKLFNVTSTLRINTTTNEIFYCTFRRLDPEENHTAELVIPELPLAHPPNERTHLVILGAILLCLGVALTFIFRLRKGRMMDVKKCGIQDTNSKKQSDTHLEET

Chain of human LAG-3 (LAG-3 effector Jurkat T cells) (human) (P18627 23-525): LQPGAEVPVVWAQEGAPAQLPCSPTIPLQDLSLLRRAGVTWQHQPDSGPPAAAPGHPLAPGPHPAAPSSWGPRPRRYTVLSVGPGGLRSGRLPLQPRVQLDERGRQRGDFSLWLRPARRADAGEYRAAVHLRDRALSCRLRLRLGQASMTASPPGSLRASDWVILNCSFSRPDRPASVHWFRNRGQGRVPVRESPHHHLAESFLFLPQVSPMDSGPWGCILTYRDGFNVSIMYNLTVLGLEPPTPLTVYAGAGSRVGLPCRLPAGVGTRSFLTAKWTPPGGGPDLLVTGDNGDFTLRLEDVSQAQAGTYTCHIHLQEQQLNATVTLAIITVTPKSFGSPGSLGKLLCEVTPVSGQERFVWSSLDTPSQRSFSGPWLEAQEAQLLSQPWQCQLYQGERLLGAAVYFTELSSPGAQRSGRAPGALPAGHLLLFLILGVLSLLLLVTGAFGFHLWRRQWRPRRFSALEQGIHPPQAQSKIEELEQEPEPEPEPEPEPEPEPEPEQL
Chain of human PD-L1 (PD-L1 aAPC/CHO-K1 cells) (human) (Q9NZQ7 19-290): as the sequence (Q9NZQ7 19-290) above

25F7 biosimilar (antibody) was tested. Which Bottom (LAG-3 blockade bioassay) [1] did it give?
Its Bottom (LAG-3 blockade bioassay) is 312000.

And the Log EC50 (LAG-3 blockade bioassay) [1]?
The Log EC50 (LAG-3 blockade bioassay) was 0.841.

And the Top (LAG-3 blockade bioassay) [1]?
The Top (LAG-3 blockade bioassay) was 918000.

What does the source list for Tecentriq biosimilar (antibody)?
Bottom (PD-1/PD-L1 blockade bioassay) [2]: 28700; EC50 (PD-1/PD-L1 blockade bioassay) [2]: 0.342; Log EC50 (PD-1/PD-L1 blockade bioassay) [2]: -0.467; Top (PD-1/PD-L1 blockade bioassay) [2]: 117000

For human IgG, which EC50 (PD-L1) is on record?
Its EC50 is 8.88 pM.

Reference: patent publication US20220220204A1
